# Article PMC4475299, “Characterization and applications of Nanobodies against human procalcitonin selected from a novel naïve Nanobody phage display library” (Journal of Nanobiotechnology, 2015)
# Target: T1, human procalcitonin (Homo sapiens, UniProt P01258)
# T1 construct: human procalcitonin (PCT), the product of preprocalcitonin after removal of the signal peptide; Bought protein; also called PCT; source: bought: Huibiao Biological Technology Co., Ltd
# Assay: SPR; SPRi on PlexArray HT; Nbs spotted and immobilised on NanoCapture 3D-chip; PCT injected at 9.7, 29.2, 87.6 and 263 nM in PBST, 2 uL/s; 1:1 Langmuir fit
# Conditions: both partners purified
Binder,Kd [nM],koff [s⁻¹],kon [M⁻¹ s⁻¹]
"PCT Nb3 (VHH, VHH from a naïve bactrian camel phage display library; Expressed from phagemid pMECS; source: E. coli WK6, periplasmic extract by osmotic shock, purified (Ni-NTA, 500 mM imidazole); not shown: HA, C-terminal, kept) VHH: QVQLQESGGGSVQVGGSLRLSCAASGYTYSSACMGWFRQAPGKEREWVGSIVSDSDDRTNYADAVKGRFTITQDNAKNTVYLQMNSLKPEDTAMYYCAARPGNCFIATKTRRYDYWGQGTQVTVSS",8.89,0.000383,43100
"PCT Nb1 (VHH, VHH from a naïve bactrian camel phage display library; Expressed from phagemid pMECS; source: E. coli WK6, periplasmic extract by osmotic shock, purified (Ni-NTA, 500 mM imidazole); not shown: HA, C-terminal, kept) VHH: QVQLQESGGGSVQAGGSLRLSCLASGYTYSSYCMGWFRQAPGKEREGVAAIGSDGSTSYADSVKGRFTISQDNAKNTLYLQMNSLKPEDTAMYYCAASKSEYDCYSGSGGLFGYWGQGTQVTVSS",12.3,0.00051,41600
"PCT Nb2 (VHH, VHH from a naïve bactrian camel phage display library; Expressed from phagemid pMECS; source: E. coli WK6, periplasmic extract by osmotic shock, purified (Ni-NTA, 500 mM imidazole); not shown: HA, C-terminal, kept) VHH: QVQLQESGGGSVQAGGSLRLSCAASTSSNVNVCMGWFRQAPGKEREGVAVIARDSETNYAASVKGRFTISQDNAKNTLYLQLNSLKPEDTAMYYCAAGPCANIRGSWSNSRLLRYNFWGQGTQVTVSS",1.34,0.000197,147000
